The record followed here is PMC4585561.

The target of this assay is VSD from KvAP (residues -12 to 136). The assay is described as follows: ITC; 350 uM VSTx1 titrated into 36 uM VSD in the cell, 25 °C, 10 mM PIPES-NaOH pH 6.5, 4 mM DM; single-site model.

In general, Kd refers to a measure of binding affinity in units of concentration. A low value points to higher affinity. What is called stoichiometry N is a count of units in the complex or per binding partner. “VSTx1 (from UniProt P60980 30-63) (peptide)” registered a Kd of 1.5 µM, a dH of -4.5 kcal/mol and a stoichiometry N of 0.97.
